{"source": "patent US20120196760A1", "about": "“METHODS AND COMPOSITIONS FOR IDENTIFYING MODULATORS OF ANTI-TETHERIN ACTIVITY TO INHIBIT P[…] VIRUSES” (CHILDRENS HOSPITAL LOS ANGELES, priority 2008, published 2012)", "molecules": {"B1": {"name": "full-length human Tetherin: human cellular protein that tethers newly budded HIV particles at the cell surface and restricts virus release (protein)", "chain": "MASTSYDYCRVPMEDGDKRCKLLLGIGILVLLIIVILGVPLIIFTIKANSEACRDGLRAVMECRNVTHLLQQELTEAQKGFQDVEAQAATCNHTVMALMASLDAEKAQGQKKVEELEGEITTLNHKLQDASAEVERLRRENQVLSVRIADKKYYPSSQDSS"}}, "tested_on": "HIV-1 VLPs", "assay": "HIV-1 VLP release from cells expressing Tetherin constructs (Western blot, % VLP release)", "assay_type": "cell-based", "conditions": "Tetherin expressed alone, no anti-Tetherin; FIG. 9B"}
{"molecule": "B1", "values": [{"measurement": "reduction of release of Virus-Like Particles (VLPs)", "value": "about 95%"}]}
